This note sets out measurements from patent US20150344580A1 (MSM PROTEIN TECHNOLOGIES, published 2015).

The labels stand for the following.
B1: mouse anti-human CD22 monoclonal antibody (antibody, V domains shown)
VH: QVQLQQSGAELVKPGASVKMSCKASGYTFTSYWLHWIKQRPGQGLEWIGYINPRNDYTEYNQKFKDKATLTADKSSSTAYMQLSSLTSEDSAVYYCARRDITTFYWGQGTTLTVSS
VL: DIQLTQSPSSLAVSAGENVTMSCKSSQSVLYSANHKNYLAWYQQKPGQSPKLLIYWASTRESGVPDRFTGSGSGTDFTLTISRVQVEDLAIYYCHQYLSSWTFGGGTKLEIK
B2: R707MSF (MSM-R707 HC CDR3 mutant, IgG1) (antibody, V domains shown)
VH: EVQLLESGGGLVQPGGSLRLSCAASGFTFSNYAIHWVRQAPGKGLEWVSAITPRGGYTYYADSVKGRFTISRDNSKNTLYLQMNSLRAEDTAVYYCARGLTMSYTPGFDYWGQGTLVTVSS
VL: not shown
notes: IgG1
B3: R707WMF (MSM-R707 HC CDR3 mutant, IgG1) (antibody, V domains shown)
VH: EVQLLESGGGLVQPGGSLRLSCAASGFTFSNYAIHWVRQAPGKGLEWVSAITPRGGYTYYADSVKGRFTISRDNSKNTLYLQMNSLRAEDTAVYYCARGLTWMYTPGFDYWGQGTLVTVSS
VL: not shown
notes: IgG1
B4: R707MVF (MSM-R707 HC CDR3 mutant, IgG1) (antibody, V domains shown)
VH: EVQLLESGGGLVQPGGSLRLSCAASGFTFSNYAIHWVRQAPGKGLEWVSAITPRGGYTYYADSVKGRFTISRDNSKNTLYLQMNSLRAEDTAVYYCARGLTMVYTPGFDYWGQGTLVTVSS
VL: not shown
notes: IgG1
B5: R707MLF (MSM-R707 HC CDR3 mutant, IgG1) (antibody, V domains shown)
VH: EVQLLESGGGLVQPGGSLRLSCAASGFTFSNYAIHWVRQAPGKGLEWVSAITPRGGYTYYADSVKGRFTISRDNSKNTLYLQMNSLRAEDTAVYYCARGLTMLYTPGFDYWGQGTLVTVSS
VL: not shown
notes: IgG1
B6: R707MAF (MSM-R707 HC CDR3 mutant, IgG1) (antibody, V domains shown)
VH: EVQLLESGGGLVQPGGSLRLSCAASGFTFSNYAIHWVRQAPGKGLEWVSAITPRGGYTYYADSVKGRFTISRDNSKNTLYLQMNSLRAEDTAVYYCARGLTMAYTPGFDYWGQGTLVTVSS
VL: not shown
notes: IgG1
B7: R707MPF (MSM-R707 HC CDR3 mutant, IgG1) (antibody, V domains shown)
VH: EVQLLESGGGLVQPGGSLRLSCAASGFTFSNYAIHWVRQAPGKGLEWVSAITPRGGYTYYADSVKGRFTISRDNSKNTLYLQMNSLRAEDTAVYYCARGLTMPYTPGFDYWGQGTLVTVSS
VL: not shown
notes: IgG1
B8: R707TMF (MSM-R707 HC CDR3 mutant, IgG1) (antibody, V domains shown)
VH: EVQLLESGGGLVQPGGSLRLSCAASGFTFSNYAIHWVRQAPGKGLEWVSAITPRGGYTYYADSVKGRFTISRDNSKNTLYLQMNSLRAEDTAVYYCARGLTTMYTPGFDYWGQGTLVTVSS
VL: not shown
notes: IgG1
B9: R707MRF (MSM-R707 HC CDR3 mutant, IgG1) (antibody, V domains shown)
VH: EVQLLESGGGLVQPGGSLRLSCAASGFTFSNYAIHWVRQAPGKGLEWVSAITPRGGYTYYADSVKGRFTISRDNSKNTLYLQMNSLRAEDTAVYYCARGLTMRYTPGFDYWGQGTLVTVSS
VL: not shown
notes: IgG1
B10: R707IMF (MSM-R707 HC CDR3 mutant, IgG1) (antibody, V domains shown)
VH: EVQLLESGGGLVQPGGSLRLSCAASGFTFSNYAIHWVRQAPGKGLEWVSAITPRGGYTYYADSVKGRFTISRDNSKNTLYLQMNSLRAEDTAVYYCARGLTIMYTPGFDYWGQGTLVTVSS
VL: not shown
notes: IgG1
B11: R707KMF (MSM-R707 HC CDR3 mutant, IgG1) (antibody, V domains shown)
VH: EVQLLESGGGLVQPGGSLRLSCAASGFTFSNYAIHWVRQAPGKGLEWVSAITPRGGYTYYADSVKGRFTISRDNSKNTLYLQMNSLRAEDTAVYYCARGLTKMYTPGFDYWGQGTLVTVSS
VL: not shown
notes: IgG1
B12: R707NMF (MSM-R707 HC CDR3 mutant, IgG1) (antibody, V domains shown)
VH: EVQLLESGGGLVQPGGSLRLSCAASGFTFSNYAIHWVRQAPGKGLEWVSAITPRGGYTYYADSVKGRFTISRDNSKNTLYLQMNSLRAEDTAVYYCARGLTNMYTPGFDYWGQGTLVTVSS
VL: not shown
notes: IgG1
B13: R707LMF (MSM-R707 HC CDR3 mutant, IgG1) (antibody, V domains shown)
VH: EVQLLESGGGLVQPGGSLRLSCAASGFTFSNYAIHWVRQAPGKGLEWVSAITPRGGYTYYADSVKGRFTISRDNSKNTLYLQMNSLRAEDTAVYYCARGLTLMYTPGFDYWGQGTLVTVSS
VL: not shown
notes: IgG1
B14: R707RMF (MSM-R707 HC CDR3 mutant, IgG1) (antibody, V domains shown)
VH: EVQLLESGGGLVQPGGSLRLSCAASGFTFSNYAIHWVRQAPGKGLEWVSAITPRGGYTYYADSVKGRFTISRDNSKNTLYLQMNSLRAEDTAVYYCARGLTRMYTPGFDYWGQGTLVTVSS
VL: not shown
notes: IgG1
B15: R707SMF (MSM-R707 HC CDR3 mutant, IgG1) (antibody, V domains shown)
VH: EVQLLESGGGLVQPGGSLRLSCAASGFTFSNYAIHWVRQAPGKGLEWVSAITPRGGYTYYADSVKGRFTISRDNSKNTLYLQMNSLRAEDTAVYYCARGLTSMYTPGFDYWGQGTLVTVSS
VL: not shown
notes: IgG1
B16: R707MQF (MSM-R707 HC CDR3 mutant, IgG1) (antibody, V domains shown)
VH: EVQLLESGGGLVQPGGSLRLSCAASGFTFSNYAIHWVRQAPGKGLEWVSAITPRGGYTYYADSVKGRFTISRDNSKNTLYLQMNSLRAEDTAVYYCARGLTMQYTPGFDYWGQGTLVTVSS
VL: not shown
notes: IgG1
B17: R707MTF (MSM-R707 HC CDR3 mutant, IgG1) (antibody, V domains shown)
VH: EVQLLESGGGLVQPGGSLRLSCAASGFTFSNYAIHWVRQAPGKGLEWVSAITPRGGYTYYADSVKGRFTISRDNSKNTLYLQMNSLRAEDTAVYYCARGLTMTYTPGFDYWGQGTLVTVSS
VL: not shown
notes: IgG1
B18: R707FMF (MSM-R707 HC CDR3 mutant, IgG1) (antibody, V domains shown)
VH: EVQLLESGGGLVQPGGSLRLSCAASGFTFSNYAIHWVRQAPGKGLEWVSAITPRGGYTYYADSVKGRFTISRDNSKNTLYLQMNSLRAEDTAVYYCARGLTFMYTPGFDYWGQGTLVTVSS
VL: not shown
notes: IgG1
B19: R707MGF (MSM-R707 HC CDR3 mutant, IgG1) (antibody, V domains shown)
VH: EVQLLESGGGLVQPGGSLRLSCAASGFTFSNYAIHWVRQAPGKGLEWVSAITPRGGYTYYADSVKGRFTISRDNSKNTLYLQMNSLRAEDTAVYYCARGLTMGYTPGFDYWGQGTLVTVSS
VL: not shown
notes: IgG1
B20: MSM-R707BR (fully human anti-human CCR7 antibody, IgG1) (antibody, V domains shown)
VH: EVQLLESGGGLVQPGGSLRLSCAASGFTFSNYAIHWVRQAPGKGLEWVSAITPRGGYTYYADSVKGRFTISRDNSKNTLYLQMNSLRAEDTAVYYCARGLTRSYTPGFDYWGQGTLVTVSS
VL: not shown
notes: IgG1 format; HC CDR3 derivative of MSM-R707
B21: MSM-R707BL (fully human anti-human CCR7 antibody, IgG1) (antibody, V domains shown)
VH: EVQLLESGGGLVQPGGSLRLSCAASGFTFSNYAIHWVRQAPGKGLEWVSAITPRGGYTYYADSVKGRFTISRDNSKNTLYLQMNSLRAEDTAVYYCARGLTLSYTPGFDYWGQGTLVTVSS
VL: not shown
notes: as for B20

The target in the first assay is T1, human CD22 (human, UniProt P20273 20-847).
T1 sequence (looked up): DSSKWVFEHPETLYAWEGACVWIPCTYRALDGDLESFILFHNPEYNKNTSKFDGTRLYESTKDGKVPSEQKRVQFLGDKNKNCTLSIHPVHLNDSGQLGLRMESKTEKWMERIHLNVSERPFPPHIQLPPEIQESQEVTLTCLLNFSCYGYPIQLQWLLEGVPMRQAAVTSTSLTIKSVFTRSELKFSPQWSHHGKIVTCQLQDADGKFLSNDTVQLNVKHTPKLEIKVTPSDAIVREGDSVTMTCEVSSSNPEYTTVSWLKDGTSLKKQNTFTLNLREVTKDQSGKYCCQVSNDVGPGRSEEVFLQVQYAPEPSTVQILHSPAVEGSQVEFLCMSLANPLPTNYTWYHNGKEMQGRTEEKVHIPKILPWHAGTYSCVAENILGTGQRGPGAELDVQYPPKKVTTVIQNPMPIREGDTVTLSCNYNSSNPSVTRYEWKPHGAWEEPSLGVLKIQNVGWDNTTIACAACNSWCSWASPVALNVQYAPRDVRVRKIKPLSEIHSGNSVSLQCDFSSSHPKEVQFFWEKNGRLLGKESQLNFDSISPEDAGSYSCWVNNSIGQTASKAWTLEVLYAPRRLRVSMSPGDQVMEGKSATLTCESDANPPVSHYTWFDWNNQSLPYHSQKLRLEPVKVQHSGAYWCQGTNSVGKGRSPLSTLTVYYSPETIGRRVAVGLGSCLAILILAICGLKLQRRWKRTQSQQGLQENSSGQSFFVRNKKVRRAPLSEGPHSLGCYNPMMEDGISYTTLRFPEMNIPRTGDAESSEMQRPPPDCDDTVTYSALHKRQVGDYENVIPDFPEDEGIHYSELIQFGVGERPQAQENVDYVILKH
The assay can be described thus: cell-based or functional assay.
B1: the “EC50 of cell killing with mouse Fab-ZAP, CLL-AAT cells” value worked out at 0.06 nM and the “EC50 of cell killing with mouse Fab-ZAP, JVM-13 cells” value was found to be 0.5 nM.

The target in a further assay is T2, human chemokine receptor CCR7 (human, UniProt P32248 25-378).
T2 construct: On CHO, BHK, R1610 and Chem-1 transfectants and, natively, on human PBMC and the leukemia lines JVM-13 and CLL-AAT; also called human CCR7; hCCR7
T2 sequence: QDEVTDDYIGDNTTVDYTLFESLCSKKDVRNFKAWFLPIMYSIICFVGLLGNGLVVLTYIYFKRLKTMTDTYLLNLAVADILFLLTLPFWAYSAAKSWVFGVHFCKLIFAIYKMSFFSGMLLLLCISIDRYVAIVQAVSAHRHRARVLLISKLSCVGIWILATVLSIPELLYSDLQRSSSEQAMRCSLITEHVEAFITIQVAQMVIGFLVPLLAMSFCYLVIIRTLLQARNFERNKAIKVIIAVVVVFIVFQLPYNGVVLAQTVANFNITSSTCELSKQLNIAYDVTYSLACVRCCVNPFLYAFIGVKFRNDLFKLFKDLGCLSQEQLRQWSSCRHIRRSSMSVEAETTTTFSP
The assay can be described thus: IgG1 of Table 16 on human CCR7-expressing cells.
In the case of B2, the binding result was “binds”.

In the case of B3, the binding result is “binds”. The same measure, in the same setting: in the case of B4 it was “binds”. On the same count and under the same terms, as for B5, the entry is “binds”. For B6, the binding result is given as “binds”. Same read-out and setting: in the case of B7 it was “binds”; in that of B8, “binds”; in that of B9, “binds”. Turning to B10, the binding result was “binds”. Same read-out and setting: as for B11, the entry is “binds”; as for B12, “binds”; as for B13, “binds”. Same read-out and setting: as for B14, the entry is “binds”; as for B15, “binds”; as for B16, “binds”.

As to B17, the binding result is reported as “binds”. Still for that read-out and setting: as for B18, the entry is “binds”; as for B19, “binds”.

The target of the next assay is T2, human chemokine receptor CCR7. The assay is described as follows: flow cytometry titration, CHO-human CCR7 cells, anti-human Fc-PE. The procedure: The affinity of IgG1 antibodies to human CCR7 was evaluated by measuring mean fluorescence value (MFI) of cells expressing CCR7 in the presence of varying concentration of antibody in question, upon staining of bound to the cells antibodies with a commercial anti-human antibody-PE conjugate. The data of such experiments are depicted in FIGS. 9, 10, and 11. In these experiments binding of some antibodies to parental cells or cells expressing mouse CCR7 was also quantitatively characterized by obtaining EC₅₀ value (a concentration of IgG1 at which half-maximum MFI is achieved) for each curve using the SoftMaxPro5 program.
For orientation: A flow cytometer gives signals particle by particle.
One may read the EC50 as the concentration needed to bring the measured effect to its halfway point. B20 displayed an EC50 of 1.9 nM.

In turn, B21 came in with an EC50 of 2.6 nM. This EC50 and that of the molecule before are within 1.5-fold of each other.
